{"source": "FireProtDB (doi:10.1021/bi051266r)", "proteins": {"B1": {"name": "DNA/RNA-binding protein Alba 2 wild type, Q97ZF4 (protein)", "chain": "MTEKLNEIVVRKTKNVEDHVLDVIVLFNQGIDEVILKGTGREISKAVDVYNSLKDRLGDGVQLVNVQTGSEVRDRRRISYILLRLKRVY"}}, "details": "Saccharolobus solfataricus (strain ATCC 35092 / DSM 1617 / JCM 11322 / P2), Thermal, DSC, Glycine 10 mM, transition: 3, reversible: yes, whole UniProt chain shown", "note": "Where “and” joins values, the source holds several entries; their conditions need not be identical. Identical values can stand only once."}
{"protein": "B1", "values": [{"measurement": "unfolding enthalpy (calorimetric)", "setting": "pH 3.2", "value": "20.3 kcal/mol and 42.8 kcal/mol"}, {"measurement": "unfolding enthalpy (van 't Hoff)", "setting": "pH 3.2", "value": "39.1 kcal/mol and 85.5 kcal/mol"}, {"measurement": "Tm", "setting": "pH 4.2", "value": 116, "unit": "°C"}, {"measurement": "unfolding enthalpy (calorimetric)", "setting": "pH 4.2", "value": 47.8, "unit": "kcal/mol"}, {"measurement": "unfolding enthalpy (van 't Hoff)", "setting": "pH 4.2", "value": 93.5, "unit": "kcal/mol"}, {"measurement": "unfolding enthalpy (calorimetric)", "setting": "pH 4.8", "value": "37.8 kcal/mol and 47.3 kcal/mol"}, {"measurement": "unfolding enthalpy (van 't Hoff)", "setting": "pH 4.8", "value": "75.5 kcal/mol and 92.7 kcal/mol"}, {"measurement": "unfolding enthalpy (calorimetric)", "setting": "pH 5.6", "value": "44.8 kcal/mol and 56.9 kcal/mol"}, {"measurement": "unfolding enthalpy (van 't Hoff)", "setting": "pH 5.6", "value": "95.5 kcal/mol and 105 kcal/mol"}, {"measurement": "unfolding enthalpy (calorimetric)", "setting": "pH 7.1", "value": "27 kcal/mol and 44.9 kcal/mol"}, {"measurement": "unfolding enthalpy (van 't Hoff)", "setting": "pH 7.1", "value": "172 kcal/mol and 84.7 kcal/mol"}]}
